Results taken from the supplement of paper PMC12764529.
± gives the half width of the 95% confidence interval.

Assay: folding stability dG unfold (combined trypsin and chymotrypsin); higher = more stable
Outline: (§1)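 K50 was inferred by Bayesian fitting of sequencing counts obtained after protease digestion of designed mini-proteins. Unfolding free energy was derived by comparison with a sequence-predicted unfolded-state K50 and a shared folded-state K50, for each protease or both combined. The mini-proteins were under 80 residues, had no cysteine, were carried in a PA-tagged cDNA display construct, and were kept only if AlphaFold2 dimer inter-PAE exceeded 15.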

| Sequence | folding stability dG unfold |
| --- | --- |
| SAGGSAGGSAMPGQKVRLTDELKKAGLEIEEAEVVEVDGKLYIRVNGKIIEIDADAIEEIEPSAGGSAGGSA [r18_445_TrROS_Hall] | 1.11 ± 0.1 kcal/mol |
| SAGGSAGGSLNPEKPSVRIRIKVQKPDGSYEEIDIEVPFQDIPDVIDELKKKGYKILSIELEPSAGGSAGGS [r12_986_TrMRF] | 4.37 ± 0.18 kcal/mol |
| SAGDNMYKYDYENPWYGIKIEVWVSPNGQIVSIKVKIEKVPPVPPKPPIDPEDMVPDPDGKYRSPNDLDSAG [r5_685_TrROS] | 1.95 ± 0.099 kcal/mol |
| SAGGSAGGGFILEVDPEKGVAVAYFDPSTGEVVVAVPEGPVYRFASAEEVVAATGKPVVIVPATSAGGSAGG [r6_752_TrMRF] | 0.966 ± 0.054 kcal/mol |
| SGMVEVKVTVPPGPATLTATPSDGSTYSKSIPANSEVTFTFPVPASLPSSTTITFTLTFPDTGTTTTTSVSA [r9_275_JUSTAS] | 1.28 ± 0.26 kcal/mol |
| SAGGSAGGEERVRLPITLEVPVPLAPVLLVSPDGSERLVPLPSVTLRITLELELTKEEWEKLLSSAGGSAGG [r6_119_TrMRF] | 3.16 ± 0.15 kcal/mol |
| SMYRIRVKIKIKNPKTGKVIELPELEGMSLEEVLEIAKELKEKFPGAEVEVEIVEVEPLPPLTEEQLKKLSA [r9_421_TrROS_Hall] | 2.11 ± 0.073 kcal/mol |
| SAGVVEITFEVPETGEPFTLVIDEDGNVTGRWPSTGDEQEWKLGDKVITFPPNMSPELAAELEKEALSESAG [r14_561_TrMRF] | 0.644 ± 0.18 kcal/mol |
| SAGGATIELEVLLEDGTLVRVRAELDEDGRLVSVEVEVRRLEPPPPPPPPERTETRVETRTEYRPEESAGGS [r8_270_TrROS_Hall] | 2.95 ± 0.48 kcal/mol |
| SAGGSAGGKITPEMEKLKKEIADAIKKAFPNKDLKIEVIKIEKTKDGSVIIDIKIGDKIIRIKASAGGSAGG [r6_494_TrMRF] | 2.16 ± 0.19 kcal/mol |
| SAGGSAGGSGMMTVELTETIVSETSVVTEKVPEKGEFIVEVLETSVSVVRRTLPLALYQALLESAGGSAGGS [r12_723_JUSTAS] | 0.789 ± 0.087 kcal/mol |
| SAGGSAGGSAGGMYITFDFEVPPNNPEVIEELKSKGIEYKKIEPKPDKVKVKVIIPEKLLSAGGSAGGSAGG [r7_41_JUSTAS] | -0.38 ± 0.27 kcal/mol |
| SAGGSAGGSMKPLGQGDFEDPDGWKIKISMYPDGWFRIEIYDKNGKPKETIPVPANDLPDILKSAGGSAGGS [r12_664_TrROS] | 1.21 ± 0.064 kcal/mol |
| SAGGSAGGGMPSITLLETVEEKLPGSRTRVTTLSYDPATGNLVVTTTTFASPGTSTTSTTVLPPSAGGSAGG [r6_745_JUSTAS] | 1.33 ± 0.074 kcal/mol |
| SAGGSAGGSEKIKEALKELGYDVEIEEIEVKKNKNGKLEIKIKLKPGMSEEEKKRIEEALKKLSAGGSAGGS [r12_352_TrROS_Hall] | 2.84 ± 0.3 kcal/mol |
| SAGGSAGGSSMLTITKTYTLPPEEIKKIEGKPGVLKVEPFVTPEGKLVVKVEIRLEIGPEKLLLSAGGSAGG [r6_155_JUSTAS] | 0.914 ± 0.11 kcal/mol |
| SAGGSAGGGMTLQITSIIEIKKPPDGPVVKFTVAGPGTTRTVTINLPENEIKPTTPIPLSRVLSSAGGSAGG [r6_585_JUSTAS] | 1.57 ± 0.31 kcal/mol |

Assay: folding stability dG unfold from trypsin proteolysis; higher = more stable
Outline: as §1

| Sequence | folding stability dG unfold |
| --- | --- |
| SAGGSAGGSAMPGQKVRLTDELKKAGLEIEEAEVVEVDGKLYIRVNGKIIEIDADAIEEIEPSAGGSAGGSA [r18_445_TrROS_Hall] | 0.366 ± 0.13 kcal/mol |
| SAGGSAGGSLNPEKPSVRIRIKVQKPDGSYEEIDIEVPFQDIPDVIDELKKKGYKILSIELEPSAGGSAGGS [r12_986_TrMRF] | 4.45 ± 0.18 kcal/mol |
| SAGDNMYKYDYENPWYGIKIEVWVSPNGQIVSIKVKIEKVPPVPPKPPIDPEDMVPDPDGKYRSPNDLDSAG [r5_685_TrROS] | 1.4 ± 0.098 kcal/mol |
| SAGGSAGGGFILEVDPEKGVAVAYFDPSTGEVVVAVPEGPVYRFASAEEVVAATGKPVVIVPATSAGGSAGG [r6_752_TrMRF] | 1.17 ± 0.024 kcal/mol |
| SGMVEVKVTVPPGPATLTATPSDGSTYSKSIPANSEVTFTFPVPASLPSSTTITFTLTFPDTGTTTTTSVSA [r9_275_JUSTAS] | 1.28 ± 0.051 kcal/mol |
| SAGGSAGGEERVRLPITLEVPVPLAPVLLVSPDGSERLVPLPSVTLRITLELELTKEEWEKLLSSAGGSAGG [r6_119_TrMRF] | 3.06 ± 0.2 kcal/mol |
| SMYRIRVKIKIKNPKTGKVIELPELEGMSLEEVLEIAKELKEKFPGAEVEVEIVEVEPLPPLTEEQLKKLSA [r9_421_TrROS_Hall] | 1.91 ± 0.069 kcal/mol |
| SAGVVEITFEVPETGEPFTLVIDEDGNVTGRWPSTGDEQEWKLGDKVITFPPNMSPELAAELEKEALSESAG [r14_561_TrMRF] | 0.66 ± 0.053 kcal/mol |
| SAGGATIELEVLLEDGTLVRVRAELDEDGRLVSVEVEVRRLEPPPPPPPPERTETRVETRTEYRPEESAGGS [r8_270_TrROS_Hall] | 2.73 ± 0.35 kcal/mol |
| SAGGSAGGKITPEMEKLKKEIADAIKKAFPNKDLKIEVIKIEKTKDGSVIIDIKIGDKIIRIKASAGGSAGG [r6_494_TrMRF] | 2.58 ± 0.14 kcal/mol |
| SAGGSAGGSGMMTVELTETIVSETSVVTEKVPEKGEFIVEVLETSVSVVRRTLPLALYQALLESAGGSAGGS [r12_723_JUSTAS] | 0.866 ± 0.071 kcal/mol |
| SAGGSAGGSAGGMYITFDFEVPPNNPEVIEELKSKGIEYKKIEPKPDKVKVKVIIPEKLLSAGGSAGGSAGG [r7_41_JUSTAS] | -0.638 ± 0.3 kcal/mol |
| SAGGSAGGSMKPLGQGDFEDPDGWKIKISMYPDGWFRIEIYDKNGKPKETIPVPANDLPDILKSAGGSAGGS [r12_664_TrROS] | 0.664 ± 0.027 kcal/mol |
| SAGGSAGGGMPSITLLETVEEKLPGSRTRVTTLSYDPATGNLVVTTTTFASPGTSTTSTTVLPPSAGGSAGG [r6_745_JUSTAS] | 1.13 ± 0.038 kcal/mol |
| SAGGSAGGSEKIKEALKELGYDVEIEEIEVKKNKNGKLEIKIKLKPGMSEEEKKRIEEALKKLSAGGSAGGS [r12_352_TrROS_Hall] | 3.18 ± 0.4 kcal/mol |
| SAGGSAGGSSMLTITKTYTLPPEEIKKIEGKPGVLKVEPFVTPEGKLVVKVEIRLEIGPEKLLLSAGGSAGG [r6_155_JUSTAS] | 0.738 ± 0.11 kcal/mol |
| SAGGSAGGGMTLQITSIIEIKKPPDGPVVKFTVAGPGTTRTVTINLPENEIKPTTPIPLSRVLSSAGGSAGG [r6_585_JUSTAS] | 1.86 ± 0.13 kcal/mol |

Assay: folding stability dG unfold from chymotrypsin proteolysis; higher = more stable
Outline: as §1

| Sequence | folding stability dG unfold |
| --- | --- |
| SAGGSAGGSAMPGQKVRLTDELKKAGLEIEEAEVVEVDGKLYIRVNGKIIEIDADAIEEIEPSAGGSAGGSA [r18_445_TrROS_Hall] | 1.43 ± 0.037 kcal/mol |
| SAGGSAGGSLNPEKPSVRIRIKVQKPDGSYEEIDIEVPFQDIPDVIDELKKKGYKILSIELEPSAGGSAGGS [r12_986_TrMRF] | 4.31 ± 0.08 kcal/mol |
| SAGDNMYKYDYENPWYGIKIEVWVSPNGQIVSIKVKIEKVPPVPPKPPIDPEDMVPDPDGKYRSPNDLDSAG [r5_685_TrROS] | 2.26 ± 0.026 kcal/mol |
| SAGGSAGGGFILEVDPEKGVAVAYFDPSTGEVVVAVPEGPVYRFASAEEVVAATGKPVVIVPATSAGGSAGG [r6_752_TrMRF] | 0.702 ± 0.044 kcal/mol |
| SGMVEVKVTVPPGPATLTATPSDGSTYSKSIPANSEVTFTFPVPASLPSSTTITFTLTFPDTGTTTTTSVSA [r9_275_JUSTAS] | 1.26 ± 0.25 kcal/mol |
| SAGGSAGGEERVRLPITLEVPVPLAPVLLVSPDGSERLVPLPSVTLRITLELELTKEEWEKLLSSAGGSAGG [r6_119_TrMRF] | 3.36 ± 0.13 kcal/mol |
| SMYRIRVKIKIKNPKTGKVIELPELEGMSLEEVLEIAKELKEKFPGAEVEVEIVEVEPLPPLTEEQLKKLSA [r9_421_TrROS_Hall] | 2.33 ± 0.083 kcal/mol |
| SAGVVEITFEVPETGEPFTLVIDEDGNVTGRWPSTGDEQEWKLGDKVITFPPNMSPELAAELEKEALSESAG [r14_561_TrMRF] | 0.587 ± 0.25 kcal/mol |
| SAGGATIELEVLLEDGTLVRVRAELDEDGRLVSVEVEVRRLEPPPPPPPPERTETRVETRTEYRPEESAGGS [r8_270_TrROS_Hall] | 3.23 ± 0.52 kcal/mol |
| SAGGSAGGKITPEMEKLKKEIADAIKKAFPNKDLKIEVIKIEKTKDGSVIIDIKIGDKIIRIKASAGGSAGG [r6_494_TrMRF] | 1.85 ± 0.12 kcal/mol |
| SAGGSAGGSGMMTVELTETIVSETSVVTEKVPEKGEFIVEVLETSVSVVRRTLPLALYQALLESAGGSAGGS [r12_723_JUSTAS] | 0.631 ± 0.097 kcal/mol |
| SAGGSAGGSAGGMYITFDFEVPPNNPEVIEELKSKGIEYKKIEPKPDKVKVKVIIPEKLLSAGGSAGGSAGG [r7_41_JUSTAS] | -0.12 ± 0.27 kcal/mol |
| SAGGSAGGSMKPLGQGDFEDPDGWKIKISMYPDGWFRIEIYDKNGKPKETIPVPANDLPDILKSAGGSAGGS [r12_664_TrROS] | 1.43 ± 0.053 kcal/mol |
| SAGGSAGGGMPSITLLETVEEKLPGSRTRVTTLSYDPATGNLVVTTTTFASPGTSTTSTTVLPPSAGGSAGG [r6_745_JUSTAS] | 1.51 ± 0.069 kcal/mol |
| SAGGSAGGSEKIKEALKELGYDVEIEEIEVKKNKNGKLEIKIKLKPGMSEEEKKRIEEALKKLSAGGSAGGS [r12_352_TrROS_Hall] | 2.79 ± 0.17 kcal/mol |
| SAGGSAGGSSMLTITKTYTLPPEEIKKIEGKPGVLKVEPFVTPEGKLVVKVEIRLEIGPEKLLLSAGGSAGG [r6_155_JUSTAS] | 1.11 ± 0.22 kcal/mol |
| SAGGSAGGGMTLQITSIIEIKKPPDGPVVKFTVAGPGTTRTVTINLPENEIKPTTPIPLSRVLSSAGGSAGG [r6_585_JUSTAS] | 0.968 ± 0.48 kcal/mol |
